Measured values as given in paper PMC12216130, “Structural basis for the interaction between the bacterial cell division proteins FtsZ and ZapA” (Nature Communications, 2025).

B1: K. pneumoniae ZapA (natural protein)
chain: MSAQPVDLQIFGRSLRVNCPPEQRDALNQAAEDLNQRLQDLKERTRVTNTEQLVFIAALNISYELTQEKAKTRDYASSMEQRIRMLQQTIEQALLEQGRISE
notes: ZapA of Klebsiella pneumoniae; synthetic gene codon-optimised for E. coli in pColdI-TEV; Tetramer in the structures; also called KpZapA; source: E. coli, purified (HisTrap, TEV cleavage, second HisTrap, Superdex200 SEC); not shown: His6, N-terminal, cleaved
B2: K. pneumoniae FtsZ (natural protein, UniProt W9BCK7 1-383, looked up)
chain: MFEPMELTNDAVIKVIGVGGGGGNAVEHMVRERIEGVEFFAVNTDAQALRKTAVGQTIQIGSGITKGLGAGANPEVGRNAADEDREALRAALDGADMVFIAAGMGGGTGTGAAPVVAEVAKDLGILTVAVVTKPFNFEGKKRMAFAEQGITELSKHVDSLITIPNDKLLKVLGRGISLLDAFGAANDVLKGAVQGIAELITRPGLMNVDFADVRTVMSEMGYAMMGSGVASGEDRAEEAAEMAISSPLLEDIDLSGARGVLVNITAGFDLRLDEFETVGNTIRAFASDNATVVIGTSLDPDMNDELRVTVVATGIGMDKRPEITLVTNKQVQQPVMDRYQQHGMSPLTQEQKPAAKVVNDNTPQTAKEPDYLDIPAFLRKQAD
notes: polymerised into protofilaments with GMPCPP, GTP or GMPPNP in the assays; also called KpFtsZ; wild-type FtsZ

Biological target: the molecule itself
Assay: cryo-EM structure; 7.4 uM KpFtsZ, 14.9 uM KpZapA (2x molar excess), 0.6 mM GMPCPP, 17 mM HEPES pH 7.5, 8.6 mM NaCl, 60 mM KCl, 3 mM MgCl2, on ice 15 min; helical refinement to 2.73 A; same data re-analysed with the focus on ZapA (3.89 and 4.27 A maps, 2D classes)

Protein | stoichiometry N | binding result
B1 | 4 | –
B2 | – | binds
